Values joined by “and” are separate entries in the source; they are usually repeats but may differ in a detail not shown here. Equal entries are not always repeated.
Experiments:
[1] = biological target: T1, XcpQ_(N012) with biotin tag (fixed on streptavidin sensors) (Pseudomonas aeruginosa) (UniProt P35818); experiment: BLI; XcpQ_(N012) fixed on streptavidin sensors by a biotin tag; soluble vHH04 from 0.156 to 10 µM
T1 sequence (chain, biotin (biotin tag, site not stated)): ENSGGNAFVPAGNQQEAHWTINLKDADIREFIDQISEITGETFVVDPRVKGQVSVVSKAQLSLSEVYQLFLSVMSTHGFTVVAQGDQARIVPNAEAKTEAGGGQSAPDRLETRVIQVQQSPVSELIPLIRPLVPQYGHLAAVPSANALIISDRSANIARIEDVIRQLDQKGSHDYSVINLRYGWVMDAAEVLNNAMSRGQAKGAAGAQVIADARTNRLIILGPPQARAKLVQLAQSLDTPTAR

[2] = biological target: T2, XcpQ_(N012) (N0, N1 and N2 subdomains of the periplasmic N-terminal domain of the P. aeruginosa XcpQ secretin) (Pseudomonas aeruginosa, UniProt P35818); experiment: SEC; vHH04 mixed with the preformed XcpQ_(N012) multimer (dodecamer); shift of the H peak; conditions: both partners purified
T2 construct: XcpQ secretin of the Xcp type II secretion system, Pseudomonas aeruginosa; subdomains N0, N1 and N2; 26 kDa; the whole N domain covers residues 51 to 365; Found in solution as dimers (L) and dodecamers (H); also called matured XcpQ_(N012); untagged XcpQ_(N012)

[3] = biological target: the molecule itself; experiment: cross-linking; in vivo disulfide cross-linking of V5-tagged full-length XcpQ variants in P. aeruginosa PAO1 ΔxcpQ; membranes with N-ethylmaleimide, SDS-PAGE denaturing, nonreducing or reducing, anti-V5 blot
[4] = biological target: the molecule itself; experiment: negative-staining single-particle electron microscopy; SEC fractions diluted to 0.02-0.05 mg/ml, uranyl acetate stain, EMAN2 2D classes; 3D reconstruction with C6 symmetry imposed for the Trx fusions
[5] = biological target: the molecule itself; experiment: SEC + cross-linking; XcpQ_(N012)-T54C-Q86C without H2O2 treatment, HiLoad Superdex 200 16/600; oligomeric fractions on SDS-PAGE under reducing and nonreducing conditions
[6] = biological target: T3, chitin binding protein D (CbpD), Xcp T2SS effector (Pseudomonas aeruginosa, UniProt Q9I589 26-389); experiment: BLI; sensor coupled to CbpD or to XcpPp; XcpQ_(N012) alone or the XcpQ_(N012)-vHH04 complex in solution; conditions: both partners purified
T3 construct: Coupled to the BLi sensor; source: purified
T3 sequence: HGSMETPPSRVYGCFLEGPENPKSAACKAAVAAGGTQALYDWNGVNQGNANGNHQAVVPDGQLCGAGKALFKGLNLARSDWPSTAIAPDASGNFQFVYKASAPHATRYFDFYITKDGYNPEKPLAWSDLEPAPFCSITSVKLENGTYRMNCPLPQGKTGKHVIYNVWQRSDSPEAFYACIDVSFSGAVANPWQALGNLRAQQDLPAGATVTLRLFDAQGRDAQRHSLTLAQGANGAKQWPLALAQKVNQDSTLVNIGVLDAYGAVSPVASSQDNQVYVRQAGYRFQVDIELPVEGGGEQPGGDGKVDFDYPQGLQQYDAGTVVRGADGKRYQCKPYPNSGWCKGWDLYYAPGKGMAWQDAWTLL

[7] = biological target: the molecule itself; experiment: SEC; HiLoad 16/600 Superdex 200 column calibrated with standard proteins; purified protein alone

B1: vHH04 nanobody directed against XcpQN (VHH)
VHH: QVQLVESGGGSVQAGGSLRLSCAASGNTDSSYYMGWFRQGPGKEREGVASIYIRAGIPYYTDSVKGRFTISQDNAKNTIYLQMNSLKPEDTAMYFCAGSVRTTIQPFKGNYYNYWGRGTQVTVSS
notes: camel nanobody; About 16 kDa; For the in vivo interference the histidine-tagged vHH04 was produced in the periplasm of P. aeruginosa PAO1 (IPTG-inducible); also called histidine-tagged vHH04; His-tagged vHH04; source: E. coli WK6, purified
**Q.** How did the Kd [1] turn out when B1 was run?
**A.** 5.6 µM

**Q.** And the “stoichiometry N” value [2]?
**A.** 6 vHH04 per XcpQ_(N012) dodecamer

B2: full-length XcpQ-S210C (natural protein)
chain: ENSGGNAFVPAGNQQEAHWTINLKDADIREFIDQISEITGETFVVDPRVKGQVSVVSKAQLSLSEVYQLFLSVMSTHGFTVVAQGDQARIVPNAEAKTEAGGGQSAPDRLETRVIQVQQSPVSELIPLIRPLVPQYGHLAAVPSANALIISDRSANIARIEDVIRQLDQKGSHDYCVINLRYGWVMDAAEVLNNAMSRGQAKGAAGAQVIADARTNRLIILGPPQARAKLVQLAQSLDTPTARSANTRVIRLRHNDAKTLAETLGQISEGMKNNGGQGGEQTGGGRPSNILIRADESTNALVLLADPDTVNALEDIVRQLDVPRAQVLVEAAIVEISGDIQDAVGVQWAINKGGMGGTKTNFANTGLSIGTLLQSLESNKAPESIPDGAIVGIGSSSFGALVTALSANTKSNLLSTPSLLTLDNQKAEILVGQNVPFQTGSYTTNSEGSSNPFTTVERKDIGVSLKVTPHINDGAALRLEIEQEISALLPNAQQRNNTDLITSKRSIKSTILAENGQVIVIGGLIQDDVSQAESKVPLLGDIPLLGRLFRSTKDTHTKRNLMVFLRPTVVRDSAGLAALSGKKYSDIRVIDGTRGPEGRPSILPTNANQLFDGQAVDLRELMTE
modifications: disulfide bridge between S210C of two chains
notes: XcpQ secretin, Pseudomonas aeruginosa, full length; Made with its own signal peptide and exported to the envelope; source: P. aeruginosa PAO1 ΔxcpQ, pJN vector, arabinose-induced, in membrane samples; not shown: V5, C-terminal, kept
**Q.** Which “stoichiometry N” value [3] does the source give for B2 here?
**A.** 2

B3: full-length XcpQ-T54C-Q86C (natural protein)
chain: ENSGGNAFVPAGNQQEAHWCINLKDADIREFIDQISEITGETFVVDPRVKGCVSVVSKAQLSLSEVYQLFLSVMSTHGFTVVAQGDQARIVPNAEAKTEAGGGQSAPDRLETRVIQVQQSPVSELIPLIRPLVPQYGHLAAVPSANALIISDRSANIARIEDVIRQLDQKGSHDYSVINLRYGWVMDAAEVLNNAMSRGQAKGAAGAQVIADARTNRLIILGPPQARAKLVQLAQSLDTPTARSANTRVIRLRHNDAKTLAETLGQISEGMKNNGGQGGEQTGGGRPSNILIRADESTNALVLLADPDTVNALEDIVRQLDVPRAQVLVEAAIVEISGDIQDAVGVQWAINKGGMGGTKTNFANTGLSIGTLLQSLESNKAPESIPDGAIVGIGSSSFGALVTALSANTKSNLLSTPSLLTLDNQKAEILVGQNVPFQTGSYTTNSEGSSNPFTTVERKDIGVSLKVTPHINDGAALRLEIEQEISALLPNAQQRNNTDLITSKRSIKSTILAENGQVIVIGGLIQDDVSQAESKVPLLGDIPLLGRLFRSTKDTHTKRNLMVFLRPTVVRDSAGLAALSGKKYSDIRVIDGTRGPEGRPSILPTNANQLFDGQAVDLRELMTE
modifications: disulfide bridge between T54C and Q86C of two chains
notes: as for B2
**Q.** With B3 as the binder, how does the “stoichiometry N” value [3] read?
**A.** 2

B4: Trx-XcpQ_(N012)-S210C (domain or fragment)
chain: ENSGGNAFVPAGNQQEAHWTINLKDADIREFIDQISEITGETFVVDPRVKGQVSVVSKAQLSLSEVYQLFLSVMSTHGFTVVAQGDQARIVPNAEAKTEAGGGQSAPDRLETRVIQVQQSPVSELIPLIRPLVPQYGHLAAVPSANALIISDRSANIARIEDVIRQLDQKGSHDYCVINLRYGWVMDAAEVLNNAMSRGQAKGAAGAQVIADARTNRLIILGPPQARAKLVQLAQSLDTPTAR
notes: XcpQ secretin, Pseudomonas aeruginosa; subdomains N0, N1 and N2; Uncleaved thioredoxin fusion of m3; source: E. coli BL21(DE3)pLysS, purified; copies: 12
**Q.** Does B4 bind [4]?
**A.** binds

B5: XcpQ_(N012)-T54C-Q86C (domain or fragment)
chain: ENSGGNAFVPAGNQQEAHWCINLKDADIREFIDQISEITGETFVVDPRVKGCVSVVSKAQLSLSEVYQLFLSVMSTHGFTVVAQGDQARIVPNAEAKTEAGGGQSAPDRLETRVIQVQQSPVSELIPLIRPLVPQYGHLAAVPSANALIISDRSANIARIEDVIRQLDQKGSHDYSVINLRYGWVMDAAEVLNNAMSRGQAKGAAGAQVIADARTNRLIILGPPQARAKLVQLAQSLDTPTAR
modifications: disulfide bridges between T54C and Q86C of neighbouring chains
notes: XcpQ secretin, Pseudomonas aeruginosa; subdomains N0, N1 and N2; source: E. coli BL21(DE3)pLysS, purified (same protocol as XcpQ_(N012), SEC without H2O2 treatment)
**Q.** With B5 as the binder, how does the “stoichiometry N” value [5] read?
**A.** 12 and 4 and 6

B6: XcpQ_(N012) (N0, N1 and N2 subdomains of the periplasmic N-terminal domain of the P. aeruginosa XcpQ secretin) (domain or fragment, Pseudomonas aeruginosa)
chain: ENSGGNAFVPAGNQQEAHWTINLKDADIREFIDQISEITGETFVVDPRVKGQVSVVSKAQLSLSEVYQLFLSVMSTHGFTVVAQGDQARIVPNAEAKTEAGGGQSAPDRLETRVIQVQQSPVSELIPLIRPLVPQYGHLAAVPSANALIISDRSANIARIEDVIRQLDQKGSHDYSVINLRYGWVMDAAEVLNNAMSRGQAKGAAGAQVIADARTNRLIILGPPQARAKLVQLAQSLDTPTAR
notes: XcpQ secretin of the Xcp type II secretion system, Pseudomonas aeruginosa; subdomains N0, N1 and N2; 26 kDa; the whole N domain covers residues 51 to 365; Found in solution as dimers (L) and dodecamers (H); also called matured XcpQ_(N012); untagged XcpQ_(N012)
**Q.** Does B6 bind [6]?
**A.** binds

B7: Trx-XcpQ_(N012) fusion protein (domain or fragment)
chain: ENSGGNAFVPAGNQQEAHWTINLKDADIREFIDQISEITGETFVVDPRVKGQVSVVSKAQLSLSEVYQLFLSVMSTHGFTVVAQGDQARIVPNAEAKTEAGGGQSAPDRLETRVIQVQQSPVSELIPLIRPLVPQYGHLAAVPSANALIISDRSANIARIEDVIRQLDQKGSHDYSVINLRYGWVMDAAEVLNNAMSRGQAKGAAGAQVIADARTNRLIILGPPQARAKLVQLAQSLDTPTAR
notes: XcpQ secretin, Pseudomonas aeruginosa; subdomains N0, N1 and N2; Uncleaved thioredoxin fusion of m1; also called Trx-Q_(N012); source: E. coli BL21(DE3)pLysS, purified (SEC); copies: 12
**Q.** For B7, which “stoichiometry N” value [7] is on record?
**A.** 12
